Target: TRIM25 (UniProt Q14258)
Assay: co-immunoprecipitation, Western blot
Settings: reference: wild type 2CARD; sites S8

“RIG-I 2CARD region (CARD1 and CARD2) (from UniProt O95786) S8A” was tested. Which “binding against the reference” value did it give?
The value was “stronger”.

— article PMC2888438
